Read-outs that look alike come from different tables or passages of the source.

The text below walks through data of patent US20230348616A1 (MIE UNIVERSITY, published 2023).

In experiment [1] the target is T1, HLA-A2 / homologous peptide CD163 complex on T2 cells (human).
T1 construct: whole, on cells; also called T2 cells supplemented with homologous peptide CD163
In words: flow cytometry, peptide-pulsed T2 cells. For orientation: A flow cytometer gives signals particle by particle.

Experiment [2] concerns the target T2, HLA-A2 / homologous peptide IL20RB complex on T2 cells (human).
T2 construct: whole, on cells; also called T2 cells supplemented with homologous peptide IL20RB
Description: flow cytometry, peptide-pulsed T2 cells.

Experiment [3] deals with T3, HLA-A2 / homologous peptide P2RY8 complex on T2 cells (human).
T3 construct: whole, on cells; also called T2 cells supplemented with homologous peptide P2RY8
Description: flow cytometry, peptide-pulsed T2 cells.

Experiment [4] deals with T4, HLA-A2 / homologous peptide PRKD2 complex on T2 cells (human).
T4 construct: whole, on cells; also called T2 cells supplemented with homologous peptide PRKD2
In words: flow cytometry, peptide-pulsed T2 cells.

In experiment [5] the target is T5, HLA-A2 / homologous peptide DOLPP1 complex on T2 cells (human).
T5 construct: whole, on cells; also called T2 cells supplemented with homologous peptide DOLPP1
Description: flow cytometry, peptide-pulsed T2 cells.

Experiment [6] addresses T6, gp100 (human).
T6 construct: cell surface;cell surface complex; also called HLA-A2 / gp100 peptide complex on T2 cells
Description: flow cytometry on peptide-pulsed T2 cells, scFv 100 nM.
Description: (§1) The resultant was washed two times in the AIM-V medium containing 20% FBS, the concentration thereof was adjusted to an adequate level with PBS containing 5% FBS, the LIVE/DEAD Fixable Dead Cell Stain Kit (Thermo Fisher Scientific) was added thereto, and the resultant was allowed to stand at 4° C. for 30 minutes. The cells were washed 2 times in PBS containing 5% FBS, the washed cells were divided into two groups, the cells in PBS containing 5% FBS were seeded on a 96-well U-bottom microplate at 10⁵ cells/well, and the plate was subjected to centrifugation, followed by removal of the supernatant. Anti-HLA/NY-ESO scFv diluted to 100 nM with PBS containing 5% FBS was added at 25 μl/well to one of the divided cells, and the resultant was allowed to stand at 4° C. for 30 minutes. The cells were washed 2 times in PBS containing 5% FBS, Penta-His Alexa Fluor488 (QIAGEN) diluted in PBS containing 5% FBS was added at 25 μl/well, and the resultant was allowed to stand at 4° C. for 30 minutes. The cells were washed 2 times in PBS containing 5% FBS, Anti-mouse-IgG Alexa Fluor488 (Thermo Fisher Scientific) diluted in PBS containing 5% FBS was added at 25 μl/well, and the resultant was allowed to stand at 4° C. for 30 minutes. The cells were washed 2 times in PBS containing 5% FBS, immobilized with Mildform 10 N (FUJIFILM Wako Pure Chemical Corporation) overnight, and resuspended in PBS containing 5% FBS. […] The cells were washed 2 times in PBS containing 5% FBS, immobilized with Mildform 10 N (FUJIFILM Wako Pure Chemical Corporation) overnight, and resuspended in PBS containing 5% FBS. The cell suspensions were subjected to detection using a flow cytometer (CantoII, Becton Dickinson). […] The standardized gMFI indicating the binding affinity of each scFv standardized with the amount of the HLA/peptide complex on the T2 cells was determined in accordance with the following equation.

Experiment [7] addresses T7, HLA-A2/NY-ESO peptide complex presented on cells (human).
T7 construct: whole, on cells; also called HLA/NY-ESO; T2 cells supplemented with the NY-ESO peptide
Described as above.
Description: as §1

In experiment [8] the target is T1, HLA-A2 / homologous peptide CD163 …. Described as above.
Description: (§2) The cells were washed 2 times in PBS containing 5% FBS, immobilized with Mildform 10 N (FUJIFILM Wako Pure Chemical Corporation) overnight, and resuspended in PBS containing 5% FBS. The cell suspensions were subjected to detection using a flow cytometer (CantoII, Becton Dickinson). […] The standardized gMFI indicating the binding affinity of each scFv standardized with the amount of the HLA/peptide complex on the T2 cells was determined in accordance with the following equation.
(§3) The 9-mer peptide shown in FIG. 2A was selected as a homologous peptide for evaluation of binding specificity of anti-HLA/NY-ESO scFv. […] The standardized gMFI indicating the binding affinity of each scFv standardized with the amount of the HLA/peptide complex on the T2 cells was determined in accordance with the following equation.
Experiment [9] has as its target T6, gp100. The description is as above. This is another data set of the same source.
Description: as §2, §3
In experiment [10] the target is T2, HLA-A2 / homologous peptide IL20RB …. Described as above.
Description: as §2, §3
The target in experiment [11] is T3, HLA-A2 / homologous peptide P2RY8 …. The description is as above.
Description: as §2, §3
The target in experiment [12] is T4, HLA-A2 / homologous peptide PRKD2 …. The description is as above.
Description: as §2, §3
Experiment [13] has as its target T7, HLA-A2/NY-ESO peptide complex presented …. Described as above. This is another data set of the same source.
Description: as §2, §3
Experiment [14] addresses T5, HLA-A2 / homologous peptide DOLPP1 …. Described as above.
Description: as §2, §3
The target of experiment [15] is T8, HLA-A*0201/β2-microglobulin/NY-ESO peptide complex (human, biotinylated with E. coli biotin ligase at the added recognition sequence (biotinylated form used in the ELISA)).
T8 construct: also called HLA/NY-ESO; HLA-A2/NY-ESO
In words: SPR (Biacore T200), scFv captured by anti-His antibody, HLA/NY-ESO as analyte, single cycle kinetics. In general terms: SPR reads the build-up and loss of mass on a sensor chip optically.
Description: With the use of Biacore T200, anti-HLA/NY-ESO scFv was captured as a ligand by the immobilized anti-His antibody, and the antigen was assayed as an analyte. As the antigen, HLA/NY-ESO prepared in 1)-1 was used. The anti-His antibody (His Capture kit, GE Healthcare) was immobilized on Sensor Chip CM5 (GE Healthcare) in accordance with the instructions of the kit. The anti-HLA/NY-ESO scFv constructs diluted to 0.5 μg/ml in HBS-EP+ (GE Healthcare) to be evaluated were brought into contact therewith at 10 μl/min for 60 seconds for immobilization. Thereafter, the samples were added to the HLA/NY-ESO analytes diluted to various levels with HBS-EP+ at a flow rate of 30 μl/min for 120 seconds and dissociation was assayed for 600 seconds.

Experiment [16] concerns the target T8, HLA-A*0201/β2-microglobulin/NY-ESO …. Description: ELISA, biotinylated HLA/NY-ESO on NeutrAvidin, scFv from E. coli culture, anti-FLAG-HRP. (In general: An ELISA detects its analyte on a solid surface through an enzyme-linked reagent.)
Description: The plate was washed 3 times with ELISA buffer, blocked with Blocker Casein (Thermo Fisher Scientific), and then washed 3 times with ELISA buffer. Thereafter, a culture solution of scFv-expressing E. coli was added, and the reaction was allowed to proceed at room temperature for 2 hours. After the resultant was washed 3 times with ELISA buffer, 50 μl of the horseradish peroxidase (HRP)-labeled anti-FLAG antibody (Sigma-Aldrich) diluted to 5,000-fold with ELISA buffer was added, and the reaction was allowed to proceed at room temperature for 1 hour.

B1: NYA-2048 (scFv)
scFv: GQVQLVESGGGVVQPGRSLRLSCAASGFSIRSYDMHWVRQAPGKGLEWVATISYDGSQKYYADSVKGRFTISRDNSKNTLYLQMSSLRAEDTAVYHCARGSSGHYEAFDIWGQGTLVTVSSGGGGSGGGGSGGGGSQSVLTQPPSASGTPGQRVTISCSGSSSNIGNWYVSWYQQLPGTAPKLLIYDNNKRPSGVPDRFSGSKSGTSASLAISGLQSEDEADYYCGTWDSSLSAPWVFGGGTKLTVLGAAAGAGGDYKDDDDKGAAAHHHHHH
notes: also called NYA-2048 tag adduct
With B1, the binding result in experiment [1], in [2], in [3], in experiment [4] and in experiment [5] was “no binding (tested: 100 nM)” in each case. Further, the “standardized gMFI” value was 0.41 with gp100 [6]; 6.58 in [7]; 0.52 in experiment [8]; 0.34 with gp100 [9]; 0.48 in [10]; 0.69 in experiment [11]. The “standardized gMFI” value was determined as 0.35 in experiment [12], 8.82 in experiment [13] and 0.44 in experiment [14]. Besides, the Kd (as a rule, the concentration at which binding is half-saturated) in experiment [15] is 6.3 nM.

B2: NY-R119 (scFv)
scFv: EVQLVESGGGVVQPGRSLTPSCSASGFSIRSYDIHWVRQAPGKGLEWVATISYDGSQKYFADSVKGRFTIFRDESENMVYLQMSGLRVEDTAVYHCARGSSGHYEAFDIWGQGTMVTVSSGGGGSGGGGSGGGGSQSVLTQPPSVSAAPGQKVTISCSGSSSNIGNNYVSWYQQLPGTAPKLLIYDNNKRPSGIPDRFSGSKSGTSATLGITGLQTGDEADYYCGTWDSSLSAPWVFGGGTKVTVL
notes: Expressed in E. coli, culture solution used in the ELISA; also called ELISA-positive clone NY-R119; not shown: FLAG tag and His tag at the carboxyl terminus from the E. coli expression vector
With B2, the binding result in [16] was “binds”.

B3: NYA-2047 (scFv)
scFv: GQVQLVESGGGVVQPGRSLRLSCAASGFSIRSYDMHWVRQAPGKGLEWVATISYDGSQKYYADSVKGRFTISRDNSKNTLYLQMSSLRAEDTAVYHCARGSSGHYEAFDIWGQGTLVTVSSGGGGSGGGGSGGGGSQSVLTQPPSVSAAPGQKVTISCSGSSSNIGNWYVSWYQQLPGTAPKLLIYDNNKRPSGIPDRFSGSKSGTSATLGITGLQTGDEADYYCGTWDSSLSAPWVFGGGTKVTVLGAAAGAGGDYKDDDDKGAAAHHHHHH
For the molecule B3, the binding result in experiment [1], in experiment [2], in experiment [3], in [4] and in experiment [5] was “no binding (tested: 100 nM)” each time. Also, the “standardized gMFI” value was 0.39 with gp100 [6]; 7.99 in experiment [7]; 0.47 in [8]; 0.3 with gp100 [9]; 0.43 in experiment [10]; 0.72 in experiment [11]. Moreover, the entries for the “standardized gMFI” value in [12], in experiment [13] and in experiment [14] were 0.35, 10.2 and 0.4, respectively. In [15], this molecule came in with a Kd of 5.3 nM.

B4: NYA-2061 (scFv)
scFv: GEVQLVESGGGLVQPGGSLRLSCAASGFSIRSYDIHWVRQAPGKGLEWVATISYDGSQKYYADSVKGRFTISRDESKNTLYLQMNSLRAEDTAVYHCARGSSGHYEAFDIWGQGTLVTVSSGGGGSGGGGSGGGGSQSVLTQPPSASGTPGQRVTISCSGSSSNIGNWYVSWYQQLPGTAPKLLIYDNNKRPSGVPDRFSGSKSGTSASLAISGLQSEDEADYYCGTWDSSLSAPWVFGGGTKLTVLGAAAGAGGDYKDDDDKGAAAHHHHHH
notes: also called NYA-2061 tag adduct
As for B4, the binding result in experiment [1], in experiment [2], in experiment [3], in [4] and in experiment [5] was “no binding (tested: 100 nM)” each time. The “standardized gMFI” value was 0.4 with gp100 [6]; 8.62 in experiment [7]; 0.48 in experiment [8]; 0.32 with gp100 [9]; 0.46 in experiment [10]; 0.57 in experiment [11]. Further, the figures for the “standardized gMFI” value in experiment [12], in experiment [13] and in [14] were 0.33, 10.4 and 0.4, respectively. In addition, the affinity in experiment [15], expressed as Kd, was 1.5 nM.
